According to patent US20110201549A1 (UNIVERSITY OF GEORGIA RESEARCH FOUNDATION, published 2011):

Target: T1, chymotrypsin-treated Cry3Bb (Bacillus thuringiensis, UniProt Q06117 162-652)
T1 construct: Insecticidal Cry toxin; It was coated on microtiter plates after chymotrypsin treatment; also called Cry3Bb protein; Cry3Bb toxin
T1 sequence: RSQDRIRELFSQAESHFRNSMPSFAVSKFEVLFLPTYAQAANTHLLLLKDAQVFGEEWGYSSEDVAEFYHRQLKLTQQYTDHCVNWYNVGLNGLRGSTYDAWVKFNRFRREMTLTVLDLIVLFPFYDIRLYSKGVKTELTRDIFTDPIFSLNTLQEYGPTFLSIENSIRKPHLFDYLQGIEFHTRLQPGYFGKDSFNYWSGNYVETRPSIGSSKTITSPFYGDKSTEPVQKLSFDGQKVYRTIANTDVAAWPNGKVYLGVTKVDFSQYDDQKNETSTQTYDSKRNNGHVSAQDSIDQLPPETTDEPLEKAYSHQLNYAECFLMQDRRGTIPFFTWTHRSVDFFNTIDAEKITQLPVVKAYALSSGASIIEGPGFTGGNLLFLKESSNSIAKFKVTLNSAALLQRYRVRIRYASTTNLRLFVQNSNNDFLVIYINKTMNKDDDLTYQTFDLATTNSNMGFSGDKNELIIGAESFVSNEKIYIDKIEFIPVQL
Assay: ELISA-based microplate binding assay: plates coated with chymotrypsin-treated Cry3Bb, increasing concentrations of biotinylated TmCad1-TBR, streptavidin-HRP detection, one site saturation fit
Experimental: FIG. 7 illustrates TmCad1-TBR binding to Cry3Bb (Panel A) and enhancement of Cry3Bb toxicity to lesser mealworm by TmCad1-TBR peptides (Panel B). In Panel A, TmCad1-TBR binding to Cry3Bb protein was determined using an ELISA-based binding assay. Microtiter plates were coated with chymotrypsin-treated Cry3Bb and then incubated with increasing various concentrations of biotinylated TmCad1-TBR peptide. Bound biotinylated TmCad1-TBR peptide was detected with a Streptavidin-HRP conjugate and substrate. Non-specific binding was determined in the presence of 1000-fold excess unlabeled TmCad1-TBR peptide. Each data point is the mean of two experiments done in duplicate. Error bars depict standard deviation. Binding affinities (Kd) were calculated based on specifically bound biotinylated TmCad1-TBR peptide using a one site saturation binding equation. […] Cry3Bb inclusions without or with and increased amount of TmCad1-TBR inclusions were applied to semi-solid diet. One 1st instar darkling beetle larva was applied per well and the bioassays was scored on day 3. No toxicity was observed when treated with TmCad1-TBR peptide alone.
We tested the possibility that TmCad1-TBR binds a coleopteran-active Cry toxins using a microplate binding assay described previously (Zhang et al. 2008). […] TmCad1-TBR also enhances Cry3Bb toxicity to A. diaperinus larvae (FIG. 7A).

B1: TmCad1-TBR cadherin fragment from the Tenebrio molitor cadherin (T. molitor cadherin Toxin Binding Region) (receptor)
chain: MKQWYQRRVAITAGKDTTSKDKLQYNIDNITPSNLDLDIKSAFTMNTQSGDITINFEVKDSMEGYFTLDLSVQDEEPENHKADATLKIYIVTSKNTVVFRFENDQETVSDKAGDIKSVLDEEFQYETKVEAPTGNTTDGTPLTRSPVFFLNLNTNEPVDATEILKKVTNVDVFQRLKNNFSKVGLVLLSFDSSSETNENLEAHHHHHH
modifications: biotinylated (sites not given)
notes: also called CR12-MPED of TmCad1
Kd: 13 nM
